The results in this text go back to PMC10786891, “Massively parallel profiling of RNA-targeting CRISPR-Cas13d”.

Positions count from the first letter of the chain named. Names and notes keep the numbering of the source.

Sequences and labels used below:
B1: target 1 insU 3' of 17,insC 3' of 17 (mixed)
RNA 1: CACCCGUGCAAAAAUGCAGGGGUCUAAAACUGAGCGGAUAACCUCUCUAUGG
RNA 2: GGGAAUGGAUCCACAUCUACGAAUUCGUACCAUAGUCAGAGGUUAUCCGCUCACCGAGAUCGGAAGAGCACACGU
B2: target 1 del12,del13 (mixed)
RNA 1: B1 RNA 1
RNA 2: GGGAAUGGAUCCACAUCUACGAAUUCGUACCAUAGAGAUUAUCCGCUCACCGAGAUCGGAAGAGCACACGU
B3: target 1 insA 3' of 22,insC 3' of 11 (mixed)
RNA 1: B1 RNA 1
RNA 2: GGGAAUGGAUCCACAUCUACGAAUUCGUACACAUAGAGAGGUCUAUCCGCUCACCGAGAUCGGAAGAGCACACGU
B4: target 1 insC 3' of 22,insA 3' of 21 (mixed)
RNA 1: B1 RNA 1
RNA 2: B1 RNA 2 with A32C, U33A, G35U, U36A, C37G
B5: target 1 C2U,C6U (mixed)
RNA 1: B1 RNA 1
RNA 2: GGGAAUGGAUCCACAUCUACGAAUUCGUACCAUAGAGAGGUUAUCUGCUUACCGAGAUCGGAAGAGCACACGU
B6: target 1 C2A,U8G (mixed)
RNA 1: B1 RNA 1
RNA 2: B5 RNA 2 with U44G, U46C, U50A
B7: target 1 insA 3' of 12,insA 3' of 10 (mixed)
RNA 1: B1 RNA 1
RNA 2: B1 RNA 2 with U36A, C37G, A40G, G41A, G42U, U44A
B8: target 1 insG 3' of 22,insG 3' of 1 (mixed)
RNA 1: B1 RNA 1
RNA 2: GGGAAUGGAUCCACAUCUACGAAUUCGUACGCAUAGAGAGGUUAUCCGCUCAGCCGAGAUCGGAAGAGCACACGU
B9: target 1 A16U,C21U (mixed)
RNA 1: B1 RNA 1
RNA 2: B5 RNA 2 with C31U, A36U, U46C, U50C
B10: target 1 G12U,U19A (mixed)
RNA 1: B1 RNA 1
RNA 2: B5 RNA 2 with U33A, G40U, U46C, U50C
B11: target 1 A16C (mixed)
RNA 1: B1 RNA 1
RNA 2: B5 RNA 2 with A36C, U46C, U50C
B12: target 1 C6A,G15A (mixed)
RNA 1: B1 RNA 1
RNA 2: B5 RNA 2 with G37A, U46A, U50C
B13: target 1 G17U,C21A (mixed)
RNA 1: B1 RNA 1
RNA 2: B5 RNA 2 with C31A, G35U, U46C, U50C
B14: target 1 insA 3' of 22,insG 3' of 18 (mixed)
RNA 1: B1 RNA 1
RNA 2: B3 RNA 2 with A37G, G38A, A39G, G40A, U42G, C43U
B15: target 1 G12A,A14G (mixed)
RNA 1: B1 RNA 1
RNA 2: B5 RNA 2 with A38G, G40A, U46C, U50C
B16: target 1 U3A,C4G (mixed)
RNA 1: B1 RNA 1
RNA 2: B5 RNA 2 with U46C, C48G, U49A, U50C
B17: target 1 complement block 4-8 (mixed)
RNA 1: B1 RNA 1
RNA 2: B5 RNA 2 with U44A, C45G, U46G, G47C, C48G, U50C
B18: target 1 U8C,A16C (mixed)
RNA 1: B1 RNA 1
RNA 2: B5 RNA 2 with A36C, U44C, U46C, U50C
B19: target 1 insA 3' of 12,insU 3' of 6 (mixed)
RNA 1: B1 RNA 1
RNA 2: B1 RNA 2 with U36A, C37G, A40G, G41A, G42U, U44A, A45U, U46C, C48U
B20: target 1 A1U,A16C (mixed)
RNA 1: B1 RNA 1
RNA 2: B5 RNA 2 with A36C, U46C, U50C, A51U
B21: target 1 insA 3' of 22,insC 3' of 12 (mixed)
RNA 1: B1 RNA 1
RNA 2: B3 RNA 2 with U42C, C43U
B22: target 1 insU 3' of 1,insC 3' of 1 (mixed)
RNA 1: B1 RNA 1
RNA 2: GGGAAUGGAUCCACAUCUACGAAUUCGUACCAUAGAGAGGUUAUCCGCUCAUCCCGAGAUCGGAAGAGCACACGU
B23: target 1 insG 3' of 22,insU 3' of 1 (mixed)
RNA 1: B1 RNA 1
RNA 2: B8 RNA 2 with G53U
B24: target 1 insG 3' of 20,insU 3' of 2 (mixed)
RNA 1: B1 RNA 1
RNA 2: B8 RNA 2 with G31C, C32A, A33G, A52U, G53A
B25: target 1 C4G,C22A (mixed)
RNA 1: B1 RNA 1
RNA 2: B5 RNA 2 with C30A, U46C, C48G, U50C
B26: target 1 insU 3' of 1,insG 3' of 1 (mixed)
RNA 1: B1 RNA 1
RNA 2: B22 RNA 2 with C53G
B27: target 1 A1U,C22A (mixed)
RNA 1: B1 RNA 1
RNA 2: B5 RNA 2 with C30A, U46C, U50C, A51U
B28: target 1 C22A (mixed)
RNA 1: B1 RNA 1
RNA 2: B5 RNA 2 with C30A, U46C, U50C
B29: target 1 insU 3' of 22,insA 3' of 8 (mixed)
RNA 1: B1 RNA 1
RNA 2: B3 RNA 2 with A31U, C43U, U44A, A45U, U46A
B30: target 1 U8C,A18C (mixed)
RNA 1: B1 RNA 1
RNA 2: B5 RNA 2 with A34C, U44C, U46C, U50C
B31: target 1 U3A,A16G (mixed)
RNA 1: B1 RNA 1
RNA 2: B5 RNA 2 with A36G, U46C, U49A, U50C
B32: target 1 A1G,A16C (mixed)
RNA 1: B1 RNA 1
RNA 2: B5 RNA 2 with A36C, U46C, U50C, A51G

This series concerns the target T1, EsCas13d, nuclease-dead (Eubacterium siraeum, UniProt B0MS50, R295A;H300A;R849A;H854A).
T1 sequence: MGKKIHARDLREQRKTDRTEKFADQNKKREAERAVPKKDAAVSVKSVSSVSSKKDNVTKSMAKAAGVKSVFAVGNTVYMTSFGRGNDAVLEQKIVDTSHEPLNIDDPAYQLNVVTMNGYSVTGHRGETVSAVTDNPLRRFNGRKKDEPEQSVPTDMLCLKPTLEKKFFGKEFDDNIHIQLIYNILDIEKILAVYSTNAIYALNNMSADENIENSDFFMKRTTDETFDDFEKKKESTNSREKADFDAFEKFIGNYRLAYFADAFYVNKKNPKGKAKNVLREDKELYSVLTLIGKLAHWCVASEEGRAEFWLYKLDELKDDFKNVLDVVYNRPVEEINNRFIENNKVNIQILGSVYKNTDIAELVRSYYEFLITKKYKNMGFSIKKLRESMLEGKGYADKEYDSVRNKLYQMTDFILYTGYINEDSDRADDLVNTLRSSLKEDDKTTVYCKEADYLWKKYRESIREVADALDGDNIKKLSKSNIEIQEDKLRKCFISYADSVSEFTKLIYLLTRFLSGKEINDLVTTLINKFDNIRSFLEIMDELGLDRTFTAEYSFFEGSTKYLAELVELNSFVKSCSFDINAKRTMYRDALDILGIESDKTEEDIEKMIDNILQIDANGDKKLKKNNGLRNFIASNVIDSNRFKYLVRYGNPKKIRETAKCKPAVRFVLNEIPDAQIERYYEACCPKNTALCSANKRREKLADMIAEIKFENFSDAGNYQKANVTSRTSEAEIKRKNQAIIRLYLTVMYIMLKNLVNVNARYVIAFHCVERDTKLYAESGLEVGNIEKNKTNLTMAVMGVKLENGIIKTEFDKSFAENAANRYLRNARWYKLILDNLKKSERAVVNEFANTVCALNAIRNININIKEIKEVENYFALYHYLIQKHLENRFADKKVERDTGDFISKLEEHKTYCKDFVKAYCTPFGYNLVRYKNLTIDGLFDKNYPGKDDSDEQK
Put plainly: crRNA (strand 1, pre-loaded); Mg2+; 40 mM Tris-HCl pH 7.5, 150 mM NaCl, 6 mM MgCl2, 1 mM DTT, 0.1% Tween-20, 0.2 mg/ml BSA; 25 C; 10 min per concentration, then washed. Conditions: tags: His6-TwinStrep-SUMO cleaved; N-terminal SNAP kept (SNAP-Surface 488); label: 3' end held by stalled T7 RNA polymerase.
The term Kd denotes the concentration at which binding is half-saturated. A high value points to weaker binding. In turn, B1 had a Kd of 36 ± 5 nM.
B2 registered a Kd of 18.6 ± 1.8 nM.
As for B3, the figure is 60 ± 19 nM.
As to B4, binding was put at a Kd of 20.7 ± 2.3 nM.
The molecule B5 gave a Kd of 8.3 ± 0.6 nM.
B6: the Kd came to 19.4 ± 1.3 nM.
Under B7 stands 32 ± 7 nM; under B8, 26.6 ± 2.1 nM.
As for B9, the figure is 11.7 ± 1.4 nM; as for B10, 52 ± 10 nM.
Under B11 stands 31 ± 2.7 nM.
B12 showed a Kd of 11.9 ± 0.5 nM. This Kd is about 2.6-fold lower than that of the molecule before.
Under B13 stands 40 ± 7 nM.
As for B14, the dissociation constant Kd worked out at 59 ± 13 nM.
B15 had a Kd of 41 ± 6 nM.
As for B16, the figure is 5.74 ± 0.33 nM; as for B17, 9.57 ± 0.27 nM.
As for B18, the Kd came to 77 ± 5 nM. Against the preceding molecule, the Kd is about 8-fold higher.
In turn, B19 returned a Kd of 64 ± 14 nM.
Turning to B20, the Kd came to 37 ± 4 nM.
Under B21 stands 20.1 ± 1.2 nM.
As for B22, the figure is 11.6 ± 0.6 nM.
Under B23 stands 31 ± 4 nM; under B24, about 60 nM; under B25, 5.9 ± 0.4 nM.
Molecule B26 showed a Kd of 11.6 ± 1 nM.
As for B27, the figure is 12.1 ± 0.9 nM; as for B28, 13.5 ± 0.7 nM.
As for B29, the figure is 58 ± 5 nM; as for B30, 89 ± 9 nM.
As for B31, the figure is 34.3 ± 2.9 nM; as for B32, 36 ± 4 nM.
